Assay results reported in PMC11277083, “A Natural Bioactive Peptide from Pinctada fucata Pearls Can Be Used as a Potential Inhibitor of the Interaction between SARS-CoV-2 and ACE2 against COVID-19” (International Journal of Molecular Sciences, 2024).

Target: recombinant ACE2 protein (coated plate of the RayBio COVID-19 Spike ACE2 binding assay kit II) (UniProt P0DTC2)
Test: ELISA; […] ([…], in PBS), 2 h at room temperature; […]

KKCH peptide
IC50: 413 µM
